Laboratory results reported in patent US5385834.

Tests used:
[1] = biological target: T7 RNA polymerase (wild-type) (Bacteriophage T7) (UniProt P00573); conditions: in vitro transcription, +/-0.003 vs T7 promoter; 80 nM enzyme
[2] = biological target: T7 RNA polymerase mutant GP1(lys222) E222K (Bacteriophage T7) (UniProt P00573); conditions: in vitro transcription, +/-0.008 vs T7 promoter; 40 nM enzyme; may be nonspecific initiation

## T3 promoter plasmid pLM10
[1]
  activity: 0.009 relative
[2]
  activity: 0.027 relative
